For 1 substance, relative presence of GFP species in the aggregates (fraction bound to fibrils) results are on record in PMC8460662.

The target of this assay is AlexaFluor594-tagged pre-formed fibrils (PFFs) of alpha-synuclein (UniProt P37840). The assay can be described thus: two-colour coincidence detection (TCCD), single-molecule fluorescence; AF594-labelled α-SYN fibrils added to LTE expressing the N-GFP LB protein; fibrils at 1 µM (monomer-equivalent); stationary plate; 300 s traces, quadruplicate; Association Quotient Q.

Regarding “GABARAPL1 (from UniProt Q9H0R8 1-117) (natural protein)”, the relative presence of GFP species in the aggregates (fraction bound to fibrils) stood at 0.14.
